Our source for the Kd and 抗体滴度 (dilution factor (1:x) from 1 mg/mL) values is patent publication CN111620945A.

Assay [1] concerns the target T1, 重组SARS-CoV-2刺突蛋白胞外区 (extra cellular domain of spike protein, S-ECD) (SARS-CoV-2), P0DTC2. Briefly: SPR, Biacore 8K, S-ECD immobilised on a CM5 chip, antibody 125-7.8 nM. Particulars: remark: other sources report otherwise. (In general: In SPR one partner is held on a chip, and binding of the other changes the refractive index at the surface.)
The target in assay [2] is T1, 重组SARS-CoV-2刺突蛋白胞外区 (extra cellular …). Briefly: indirect ELISA, S-ECD coated at 1 μg/ml, end-point titre. Particulars: remark: other sources report otherwise. (In general: An ELISA detects its analyte on a solid surface through an enzyme-linked reagent.)

B1: FC05 (antibody)
chain 1: EVQLLEQSGAEVKKPGASVRVSCKVSGYTLPEVAMHWVRQAPGKGLEWMGGFDPEDGETIYAQKFQGRVTMTEDTSTDTAYMELSSLRSEDTAVYYCATTTPFSSSFWFDPWGQGTLVTVSS
chain 2: QSVLTQAPSVSGAPGQKVTISCSGSSSNIGNNYVSWYQQLPGTAPKLLIYDNNKRPSGIPDRFSGSKSGTSATLGITGLQTGDEADYYCGTWDSSLSAVVFGGGTKLTVL
For orientation: Kd means the equilibrium constant for the complex coming apart. The molecule B1 had a Kd in assay [1] of 100 pM. This molecule also registered a 抗体滴度 (dilution factor (1:x) from 1 mg/mL) in assay [2] of 320000.
